Data taken from patent US6716811B1, “Compounds having affinity for the granulocyte-colony stimulating factor receptor (G-CSFR) and associated uses” (Affymax, Inc., priority 2000, dated 2004).
One block for each molecule: values may come before it. Where a SMILES comes first, the peptide text is derived from it. Where no end group is shown, it is not given here. MBP = maltose binding protein

Tests used:
G-CSFR [1] = molecular target: T1, G-CSFR (Homo sapiens, UniProt Q99062); assay: Ba/F3 G-CSFR reporter cell (fos promoter/luciferase) assay; format: cell-based; set-up: expression vectors encoding the full length human G-CSFR; expressed in transfected cells; host or cells: murine IL-3 dependent Ba/F3 cells
T1 sequence (Q99062 25-836): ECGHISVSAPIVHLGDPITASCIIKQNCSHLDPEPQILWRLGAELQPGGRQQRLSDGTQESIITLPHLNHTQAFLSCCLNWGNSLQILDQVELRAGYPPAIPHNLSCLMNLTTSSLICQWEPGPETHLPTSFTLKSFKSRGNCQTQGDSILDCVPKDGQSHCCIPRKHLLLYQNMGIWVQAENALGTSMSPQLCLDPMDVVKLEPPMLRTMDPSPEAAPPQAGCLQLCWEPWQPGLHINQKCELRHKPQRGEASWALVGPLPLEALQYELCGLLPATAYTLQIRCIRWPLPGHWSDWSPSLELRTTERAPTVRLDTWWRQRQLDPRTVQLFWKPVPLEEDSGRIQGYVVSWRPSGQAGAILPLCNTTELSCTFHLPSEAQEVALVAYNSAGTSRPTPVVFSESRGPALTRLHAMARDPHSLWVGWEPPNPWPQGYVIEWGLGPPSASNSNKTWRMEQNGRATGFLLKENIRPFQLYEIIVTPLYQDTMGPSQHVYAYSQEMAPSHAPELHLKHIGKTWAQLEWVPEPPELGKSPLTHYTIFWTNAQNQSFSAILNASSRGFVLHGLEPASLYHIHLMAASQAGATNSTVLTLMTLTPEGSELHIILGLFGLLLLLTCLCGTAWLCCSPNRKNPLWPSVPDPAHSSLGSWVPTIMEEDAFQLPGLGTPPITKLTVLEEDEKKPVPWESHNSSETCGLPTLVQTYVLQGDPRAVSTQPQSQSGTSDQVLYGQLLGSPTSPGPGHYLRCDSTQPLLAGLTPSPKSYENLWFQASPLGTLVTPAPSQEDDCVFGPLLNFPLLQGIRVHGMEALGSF
Protocol: (§1) The bioactivity of selected peptides of the invention was measured in cell-based assays. […] Murine IL-3 dependent Ba/F3 cells were co-transfected with expression vectors encoding the full length human G-CSFR and a luciferase reporter gene controlled by the fos promoter.
Reporter cell assays were performed on the above cell line using peptides of the invention. The cells were maintained in complete RPMI-164Q media containing 10% fetal calf serum, 2 mM L-glutamine, 1X antibiotic-antimycotic solution (Life Technologies), and 10% WEHI-3 conditioned media (source of murine IL-3). For reporter assays, cells were starved overnight in medium which lacks WEHI-3 to reduce luciferase expression to background levels. The cells were then washed twice in PBS, resuspended in media which lacks WEHI-3 conditioned media, and added to wells of a 96-well microtiter plate containing dilutions of peptide or G-CSF at 5×10^4 cells/well. Plates were incubated for 2 hours at 37° C. in a humidified 5% CO2 incubator and luciferase activity was measured by the addition of luciferin (LucLite—Packard Biosciences) to each well. The plates were read in a TopCount (Wallac) microtiter plate luminometer.
To measure the ability of selected peptides of the invention to block G-CSF mediated receptor activation, dilutions of peptide were combined with Ba/F3 G-CSFR reporter cells as described above. After a 30-minute incubation at 37° C., G-CSF was added to each well. The cells were incubated for 2 hours at 37° C. and the amount of luciferase produced was measured as described above.
Ligand mediated G-CSF receptor activation in these cells results in the expression of luciferase, providing a detectable biological signal.
A biosassay was used to measure the potency of AF15846 and other possible G-CSF receptor antagonists. This bioassay utilizes a Ba/F3 cell line containing the rhGCSF receptor and a c-fos promoter/luciferase gene construct (Ba/F3/rhGCSF-R/pFos-1cf). Competent binding of a ligand to the receptor results in expression of lucifierase as the biological readout.

[2] = Stability in cell culture medium (NFS-60-conditioned medium); format: in vitro ADME; conditions: overnight incubation in NFS-60-conditioned medium
NFS-60 cells = assay: Cell-based assays using NFS-60 cells; set-up: species or system Murine
[3] = molecular target: T2, human thrombopoietin receptor (Homo sapiens, UniProt P40238); assay: Proliferation of Ba/F3 cells expressing the human thrombopoietin receptor; format: cell-based
T2 construct: expressed in transfected cells; host or cells: Ba/F3 cells
T2 sequence (P40238 26-635): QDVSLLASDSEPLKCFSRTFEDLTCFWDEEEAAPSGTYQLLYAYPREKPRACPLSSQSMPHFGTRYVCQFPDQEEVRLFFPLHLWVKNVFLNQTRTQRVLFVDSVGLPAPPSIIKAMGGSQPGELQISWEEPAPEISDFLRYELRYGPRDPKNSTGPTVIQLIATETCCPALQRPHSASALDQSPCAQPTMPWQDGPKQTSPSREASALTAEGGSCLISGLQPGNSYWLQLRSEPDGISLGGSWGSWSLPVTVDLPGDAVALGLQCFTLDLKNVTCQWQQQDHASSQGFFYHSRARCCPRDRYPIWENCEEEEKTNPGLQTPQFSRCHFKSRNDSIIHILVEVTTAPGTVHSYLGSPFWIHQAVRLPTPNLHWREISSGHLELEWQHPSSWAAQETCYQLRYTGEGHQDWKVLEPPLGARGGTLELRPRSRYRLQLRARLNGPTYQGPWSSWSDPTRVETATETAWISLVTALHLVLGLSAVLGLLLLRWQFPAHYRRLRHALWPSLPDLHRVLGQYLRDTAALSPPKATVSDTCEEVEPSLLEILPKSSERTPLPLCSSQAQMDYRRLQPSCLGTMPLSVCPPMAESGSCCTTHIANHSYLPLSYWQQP
From the text: (§2) This is true for most of the MBP fusions tested. Presumably the fusion protein is dimerized through intermolecular disulfide bonds between cysteine residues present in the peptide sequence.

Parental Ba/F3 cells = assay: Proliferation of parental Ba/F3 cells; format: cell-based, Murine
G-CSFR [4] = molecular target: T1, G-CSFR; assay: Ba/F3 G-CSFR cell proliferation assay; format: cell-based; set-up: expression vectors encoding the full length human G-CSFR; expressed in transfected cells; host or cells: murine IL-3 dependent Ba/F3 cells; conditions: MBP fusion protein
Protocol: as §1, §2

G-CSF receptor [5] = molecular target: T3, G-CSF receptor (Homo sapiens, UniProt Q99062); assay: 125I-G-CSF competition binding assay of oxidized AF15846 fractions; conditions: HPLC fractions of oxidized AF15846; FIG. 4
T3 sequence (Q99062 25-836): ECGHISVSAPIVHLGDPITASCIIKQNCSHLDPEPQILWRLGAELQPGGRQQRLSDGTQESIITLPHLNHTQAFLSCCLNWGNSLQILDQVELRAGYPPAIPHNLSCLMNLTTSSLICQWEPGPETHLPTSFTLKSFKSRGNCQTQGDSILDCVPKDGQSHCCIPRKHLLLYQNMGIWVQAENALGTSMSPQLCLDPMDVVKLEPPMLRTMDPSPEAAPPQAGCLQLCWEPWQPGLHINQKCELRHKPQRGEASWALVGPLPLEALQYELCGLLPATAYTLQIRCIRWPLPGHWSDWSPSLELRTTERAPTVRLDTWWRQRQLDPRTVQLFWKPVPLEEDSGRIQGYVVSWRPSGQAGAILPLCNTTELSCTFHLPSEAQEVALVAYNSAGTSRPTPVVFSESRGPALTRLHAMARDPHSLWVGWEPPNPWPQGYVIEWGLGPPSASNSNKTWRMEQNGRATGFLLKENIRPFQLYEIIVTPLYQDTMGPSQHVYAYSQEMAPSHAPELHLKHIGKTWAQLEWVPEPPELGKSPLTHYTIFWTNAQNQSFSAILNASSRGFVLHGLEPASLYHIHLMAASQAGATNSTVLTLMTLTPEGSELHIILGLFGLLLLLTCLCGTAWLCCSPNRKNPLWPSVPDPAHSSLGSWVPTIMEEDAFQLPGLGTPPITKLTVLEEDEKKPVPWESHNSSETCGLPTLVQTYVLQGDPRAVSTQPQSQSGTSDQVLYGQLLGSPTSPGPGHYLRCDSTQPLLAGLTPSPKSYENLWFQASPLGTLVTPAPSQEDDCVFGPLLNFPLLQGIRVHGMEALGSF
From the text: (§3) Several fractions containing oxidized AF15846 resulting from treatment under the conditions described above were collected subjected to testing in two assays: an ^125I-G-CSF competition binding assay and an ELISA format competitive G-CSF receptor-binding assay.

G-CSF receptor [6] = molecular target: T3, G-CSF receptor; assay: ELISA format competitive G-CSF receptor-binding assay; conditions: HPLC fractions of oxidized AF15846
From the text: as §3

[7] = Incubation of oxidized peptide at 37° C., HPLC pattern; format: physicochemical; conditions: pH 6.0 or pH 7.5, clean profiles only at pH 4.1
Protocol: The oxidized peptide was also reacted with N-ethylmaleimide (NEM) at 37° C. for 1 hour in 100 mM ammonium acetate, pH 4.1 to see if any free Cys residues remained in the molecule. If this were the case, treatment with the alkylating reagent would result in a shift of the HPLC retention time. Upon incubation with NEM, no such shift was seen (FIG. 7). In contrast, when the oxidized peptide was incubated with the disulfide specific reducing agent TCEP, also in ammonium acetate, a shift to a later retention time, consistent with reduced peptide, was found. The reduced peptide was modified with NEM to produce a peptide that eluted even later than the reduced form.
It was necessary to drop to pH 4.1 to obtain clean profiles upon NEM treatment.

G-CSFR [8] = molecular target: T1, G-CSFR; set-up: made in house; conditions: read-out: observed affinity for its receptor; cited from earlier work

Molecule: CC[C@H](C)[C@H](NC(=O)[C@H](CC(=O)O)NC(=O)[C@H](CC(C)C)NC(=O)[C@@H](N)CC(C)C)C(=O)N[C@@H](CS)C(=O)N[C@@H](CCC(=O)O)C(=O)N[C@@H](CC(C)C)C(=O)N[C@@H](CCCCN)C(=O)N[C@@H](CC(C)C)C(=O)N[C@@H](CCC(N)=O)C(=O)N[C@@H](CCC(=O)O)C(=O)N[C@@H](CS)C(=O)N[C@@H](C)C(=O)N[C@@H](CCCNC(=N)N)C(=O)N[C@@H](CCCNC(=N)N)C(=O)N[C@@H](CS)C(=O)N[C@@H](CC(N)=O)C(=O)O [Example 53, LLDICELKLQECARRCN] (H-LLDICELKLQECARRCN-OH; N-terminus and C-terminus assumed)
- effect on G-CSF dose-response curve (luciferase) (G-CSFR [1]; Ba/F3/rhGCSF-R/pFos-lcf, FIGS. 10A, 10B, 11): dose-response curve shifting to higher concentrations
- effect on G-CSF response (luciferase) (G-CSFR [1]; increasing concentrations of peptide added before G-CSF, FIG. 3): G-CSFR antagonist

Molecule: EQSNSGWVWV-NH2 [Example 74]
- stability in cell culture medium [2]: no loss of activity was observed
- antagonist activity in cell-based assays (NFS-60 cells): antagonist activity at high concentrations

B1: Granulocyte-colony stimulating factor (protein)
chain: TPLGPASSLPQSFLLKCLEQVRKIQGDGAALQEKLCATYKLCHPEELVLLGHSLGIPWAPLSSCPSQALQLAGCLSQLHSGLFLYQGLLQALEGISPELGPTLDTLQLDVADFATTIWQQMEELGMAPALQPTQGAMPAFASAFQRRAGGVLVASHLQSFLEVSYRVLRHLAQP
- luciferase response of reporter cells (G-CSFR [1]; ligand alone, FIG. 2): dose dependent manner
- Kd (G-CSFR [8]): ~0.1 nM

Second part, led by results:

- proliferation in response to fusion protein [3]: did not proliferate
- concentration of maximal activity in Ba/F3 G-CSFR cell proliferation assay (G-CSFR [4]): 100 nM
Molecule: MBP fusion protein of Example 78: Example 78 peptide fused to the carboxy-terminus of the maltose binding protein (MBP); monomeric and dimeric species ({MBP}-LLDICELKLQECARRCN; cysteine pairing not given here; also: monomeric and dimeric species)
- proliferation in response to fusion protein (Parental Ba/F3 cells): did not proliferate

- activity of fractions in 125I-G-CSF competition binding assay (G-CSF receptor [5]): highest activity
- activity of fractions in ELISA format competitive G-CSF receptor-binding assay (G-CSF receptor [6]): highest activity
Molecule: Tris-oxidized species: active oxidized dimer of AF15846 formed in 50 mM Tris, pH 8 (LLDICELKLQECARRCN; also: homodimer of two chains joined by three parallel interchain disulfides, disulfide at 5, other end not in the chain, disulfide at 12, other end not in the chain, disulfide at 16, other end not in the chain)
- stability on incubation at higher pH [7]: disulfide scrambling and/or degradation
